Measured values reported in patent US12545899B2, “Luciferase enzymes for use with thermostable luciferins in bioluminescent assays” (Promega Corporation, priority 2018, dated 2026).

Legend:
Assay type in all cases: biochemical
[1] = Kinetic analysis of thermostable variants with CS0280 (Tables 13, 14); settings: 2 mM ATP
From the text: (§1) Tables 13 and 14 include representative results of kinetic analysis of the thermostable variants with D/L luciferin, CS0333, and CS0280. The panel of enzyme variants highlight amino acid substitutions that further improve upon MK0137 in maximum luminescence (Vmax) or Km in different buffers with the different substrates tested (D/L-luciferin, CS0333, and CS0280). In particular, enzyme variants MK0151 and MK153 show improvements relative to MK0137 across multiple buffers with multiple substrates.

[2] = Luminescence at 1 mM D/L-luciferin (Table 11); settings: 1 mM substrate, 1 mM ATP
From the text: (§2) Tables 10 and 11 include representative results of kinetic analysis of the thermostable variants with D/L luciferin, CS0333, and CS0280. […] MK0135 and MK0137 have amino acid substitutions that improve thermostability relative to MK0133 and MK0134, respectively, while retaining activity on the luciferin analogs CS0333 and CS0280.

[3] = Kinetic analysis of thermostable variants with D/L-luciferin (Tables 13, 14); settings: 2 mM ATP
From the text: as §1

[4] = Luminescence at 1 mM CS0333 (Table 11); settings: 1 mM substrate, 1 mM ATP
From the text: as §2

[5] = Kinetic analysis of thermostable variants with CS0333 (Tables 13, 14); settings: 2 mM ATP
From the text: as §1

[6] = Luminescence at 1 mM CS0280 (Table 11); settings: 1 mM substrate, 1 mM ATP
From the text: as §2

Row | Molecule | Km ([1]; BrightGlo Buffer) | Vmax (RLU) ([1]; BrightGlo Buffer) | Km ([1]; Detection Reagent Buffer) | Vmax (RLU) ([1]; Detection Reagent Buffer) | Vmax (RLU) D/L-luciferin BrightGlo Buffer [2] | Vmax (RLU) D/L-luciferin Detection Reagent Buffer [2] | Km ([3]; BrightGlo Buffer) | Vmax (RLU) ([3]; BrightGlo Buffer) | Km ([3]; Detection Reagent Buffer) | Vmax (RLU) ([3]; Detection Reagent Buffer) | Vmax (RLU) CS0333 BrightGlo Buffer [4] | Vmax (RLU) CS0333 Detection Reagent Buffer [4] | Km ([5]; BrightGlo Buffer) | Vmax (RLU) ([5]; BrightGlo Buffer) | Km ([5]; Detection Reagent Buffer) | Vmax (RLU) ([5]; Detection Reagent Buffer) | Vmax (RLU) CS0280 BrightGlo Buffer [6] | Vmax (RLU) CS0280 Detection Reagent Buffer [6]
1 | MK0153: SEQ ID NO: 118; H244W+S193A+N228D+L305F+S306P+I109V+C38R+F55I+Y108F+A316W+Y339M+T342S+V348I+T289S+K353R+D435G+W510R (protein) MADKNILYGPEPFYPLEDGTAGEQMFDALSRYAAIPGRIALTNAHTKENVLYEEILKLSCRLAESFKKYGLKQNDTIAVCSENSLQFFLPVIASLYLGIIVAPVNDKFVERELIHSLGIVKPRIVFCSKNTFQKVLNVKSKLKSIETIIILDLNEDLGGYQCLNNFISQNSDSNLDVKKFKPYSFNRDDQVAAIMFSSGTTGLPKGVMLTHKNIVARFSIAKDPTFGDAINPTSAILTVIPFHWGFGMMTTLGYFTRGFRVVLMHTFEEKLFLQSLQDYKVESTLLVPSLMAFLAKSALVEKYDFPHLKEIATGGWPLSKEIGEMVKKRFKLNFVRQGMGLSETTSAILITPRGDAKPGSTGKIVPLHAVKVVDPTTGKILGPNEPGELYFKGPMIMKGYYNNEEATKAIIDNDGWLRSGDIAYYDNDGHFYIVDRLKSLIKYKGYQVAPAEIEGILLQHPYIVDAGVTGIPDEAAGELPAAGVVVQTGKYLNEQIVQDYVASQVSTAKWLRGGVKFLDEIPKGSTGKIDRKVLRQMLEKHTNGHHHHHHHH | 7.71 µM | 1,098,792 RLU | 474 µM | 88,269 RLU | 509,406 RLU | 78,859 RLU | 176 nM | 1,081,804 RLU | 435 nM | 75,581 RLU | 3,768,010 RLU | 2,570,070 RLU | 6.66 µM | 4,114,986 RLU | 22 µM | 822,270 RLU | 1,803,730 RLU | 90,671 RLU
2 | MK0155: SEQ ID NO: 120; H244W+S193A+N228D+L305F+S306P+I109V+C38R+F55I+Y108F+A316W+Y339M+T342S+V348I+T284A+S313T+K353R+L437R+W510R (protein) MADKNILYGPEPFYPLEDGTAGEQMFDALSRYAAIPGRIALTNAHTKENVLYEEILKLSCRLAESFKKYGLKQNDTIAVCSENSLQFFLPVIASLYLGIIVAPVNDKFVERELIHSLGIVKPRIVFCSKNTFQKVLNVKSKLKSIETIIILDLNEDLGGYQCLNNFISQNSDSNLDVKKFKPYSFNRDDQVAAIMFSSGTTGLPKGVMLTHKNIVARFSIAKDPTFGDAINPTSAILTVIPFHWGFGMMTTLGYFTCGFRVVLMHTFEEKLFLQSLQDYKVESALLVPTLMAFLAKSALVEKYDFPHLKEIATGGWPLSKEIGEMVKKRFKLNFVRQGMGLSETTSAILITPRGDAKPGSTGKIVPLHAVKVVDPTTGKILGPNEPGELYFKGPMIMKGYYNNEEATKAIIDNDGWLRSGDIAYYDNDGHFYIVDRRKSLIKYKGYQVAPAEIEGILLQHPYIVDAGVTGIPDEAAGELPAAGVVVQTGKYLNEQIVQDYVASQVSTAKRLRGGVKFLDEIPKGSTGKIDRKVLRQMLEKHTNGHHHHHHHH | 8.07 µM | 570,972 RLU | 798 µM | 32,480 RLU | 851,342 RLU | 74,704 RLU | 80.4 nM | 550,291 RLU | 527 nM | 22,671 RLU | 3,609,390 RLU | 1,400,780 RLU | 7.88 µM | 1,487,388 RLU | 126 µM | 301,956 RLU | 4,644,970 RLU | 62,606 RLU
3 | MK0157: SEQ ID NO: 122; H244W+S193A+N228D+L305F+S306P+I109V+C38R+F55I+Y108F+A316W+Y339M+T342S+V348I+T284A+T289S+K353R+D435G+L437R (protein) MADKNILYGPEPFYPLEDGTAGEQMFDALSRYAAIPGRIALTNAHTKENVLYEEILKLSCRLAESFKKYGLKQNDTIAVCSENSLQFFLPVIASLYLGIIVAPVNDKFVERELIHSLGIVKPRIVFCSKNTFQKVLNVKSKLKSIETIIILDLNEDLGGYQCLNNFISQNSDSNLDVKKFKPYSFNRDDQVAAIMFSSGTTGLPKGVMLTHKNIVARFSIAKDPTFGDAINPTSAILTVIPFHWGFGMMTTLGYFTRGFRVVLMHTFEEKLFLQSLQDYKVESALLVPTLMAFLAKSALVEKYDFPHLKEIATGGWPLSKEIGEMVKKRFKLNFVRQGMGLSETTSAILITPRGDAKPGSTGKIVPLHAVKVVDPTTGKILGPNEPGELYFKGPMIMKGYYNNEEATKAIIDNDGWLRSGDIAYYDNDGHFYIVGRLKSLIKYKGYQVAPAEIEGILLQHPYIVDAGVTGIPDEAAGELPAAGVVVQTGKYLNEQIVQDYVASQVSTAKWLRGGVKFLDEIPKGSTGKIDRKVLRQMLEKHTNGHHHHHHHH | 4.49 µM | 951,258 RLU | 631 µM | 87,011 RLU | 573,187 RLU | 75,012 RLU | 100 nM | 590,903 RLU | 270 nM | 32,485 RLU | 4,827,260 RLU | 3,810,820 RLU | 4.51 µM | 2,835,770 RLU | 18.7 µM | 515,775 RLU | 3,598,730 RLU | 159,336 RLU
4 | MK0154: SEQ ID NO: 119; H244W+S193A+N228D+L305F+S306P+I109V+C38R+F55I+Y108F+A316W+Y339M+T342S+V348I+C257R+T284A+T289S+S313T+K353R+D435G+L437R+W510R (protein) MADKNILYGPEPFYPLEDGTAGEQMFDALSRYAAIPGRIALTNAHTKENVLYEEILKLSCRLAESFKKYGLKQNDTIAVCSENSLQFFLPVIASLYLGIIVAPVNDKFVERELIHSLGIVKPRIVFCSKNTFQKVLNVKSKLKSIETIIILDLNEDLGGYQCLNNFISQNSDSNLDVKKFKPYSFNRDDQVAAIMFSSGTTGLPKGVMLTHKNIVARFSIAKDPTFGDAINPTSAILTVIPFHWGFGMMTTLGYFTCGFRVVLMHTFEEKLFLQSLQDYKVESALLVPSLMAFLAKSALVEKYDFPHLKEIATGGWPLSKEIGEMVKKRFKLNFVRQGMGLSETTSAILITPKGDAKPGSTGKIVPLHAVKVVDPTTGKILGPNEPGELYFKGPMIMKGYYNNEEATKAIIDNDGWLRSGDIAYYDNDGHFYIVDRLKSLIKYKGYQVAPAEIEGILLQHPYIVDAGVTGIPDEAAGELPAAGVVVQTGKYLNEQIVQDYVASQVSTAKRLRGGVKFLDEIPKGSTGKIDRKVLRQMLEKHTNGHHHHHHHH | 41.7 µM | 449,576 RLU | 954 µM | 24,533 RLU | 2,583,340 RLU |  | 108 nM | 2,997,269 RLU | 356 nM | 342,134 RLU | 2,374,950 RLU | 854,223 RLU | 10.6 µM | 1,706,369 RLU | 230 µM | 409,320 RLU | 809,566 RLU | 22,493 RLU
5 | MK0156: SEQ ID NO: 121; H244W+S193A+N228D+L305F+S306P+I109V+C38R+F55I+Y108F+A316W+Y339M+T342S+V348I+C257R+T289S+S313T+K353R (protein) MADKNILYGPEPFYPLEDGTAGEQMFDALSRYAAIPGRIALTNAHTKENVLYEEILKLSCRLAESFKKYGLKQNDTIAVCSENSLQFFLPVIASLYLGIIVAPVNDKFVERELIHSLGIVKPRIVFCSKNTFQKVLNVKSKLKSIETIIILDLNEDLGGYQCLNNFISQNSDSNLDVKKFKPYSFNRDDQVAAIMFSSGTTGLPKGVMLTHKNIVARFSIAKDPTFGDAINPTSAILTVIPFHWGFGMMTTLGYFTCGFRVVLMHTFEEKLFLQSLQDYKVESALLVPSLMAFLAKSALVEKYDFPHLKEIASGGWPLSKEIGEMVKKRFKLNFVRQGMGLSETTSAILITPRGDAKPGSTGKIVPLHAVKVVDPTTGKILGPNEPGELYFKGPMIMKGYYNNEEATKAIIDNDGWLRSGDIAYYDNDGHFYIVGRRKSLIKYKGYQVAPAEIEGILLQHPYIVDAGVTGIPDEAAGELPAAGVVVQTGKYLNEQIVQDYVASQVSTAKWLRGGVKFLDEIPKGSTGKIDRKVLRQMLEKHTNGHHHHHHHH | 9.12 µM | 378,264 RLU | 1210 µM | 21,620 RLU | 796,344 RLU | 173,238 RLU | 61.3 nM | 1,244,361 RLU | 373 nM | 144,242 RLU | 828,634 RLU | 377,642 RLU | 7.16 µM | 793,473 RLU | 116 µM | 174,991 RLU | 753,523 RLU | 16,392 RLU
